For experiment [1], the target named is gp350-ECD123-6His (Epstein-Barr virus (strain M81)) (UniProt P03200). In words: SPR; Biacore T200; the three recombinant gp350s immobilised on CM5 chip at pH 5.5 with low RU to avoid avidity; MBP-hCR2 SCR1-2 injected at 30 µl/min; regeneration with 10 mM glycine-HCl pH 1.5; 1:1 fit. (In general: SPR reads the build-up and loss of mass on a sensor chip optically.)

Experiment [2] deals with gp350-ECD123-Fc_(mIgG2a) (Epstein-Barr virus (strain M81) | mouse) (UniProt P03200). Described as above.
The target of experiment [3] is gp350-ECDFL-Fc_(mIgG2a) (Epstein-Barr virus (strain M81) | mouse) (UniProt P03200). Described as above.
Experiment [4] addresses gp350-ECD123-Fc_(mIgG2a) (Epstein-Barr virus (strain M81) | mouse) (UniProt P03200). Put plainly: AUC; sedimentation velocity, 20°C, PBS, 35,000 rpm, samples diluted to 1 OD at 280 nm; c(s) and c(M) in Sedfit.
The target is the same in experiment [5]. In words: SDS-PAGE under reducing and non-reducing conditions with Western blot; 15 µl supernatants of passage 1 baculovirus stocks, with and without β-ME, 10% SDS-PAGE; detected by anti-His or anti-mouse Fc antibody. Background: Immunoblotting shows a protein as a band on a membrane.
Experiment [6] addresses gp350-ECDFL-Fc_(mIgG2a) (Epstein-Barr virus (strain M81) | mouse) (UniProt P03200). In words: AUC; sedimentation velocity, 20°C, PBS, 35,000 rpm, samples diluted to 1 OD at 280 nm; c(s) and c(M) in Sedfit.
The target is the same in experiment [7]. In words: SDS-PAGE under reducing and non-reducing conditions with Western blot; 15 µl supernatants of passage 1 baculovirus stocks, with and without β-ME, 10% SDS-PAGE; detected by anti-His or anti-mouse Fc antibody.

MBP-hCR2 SCR1-2 (domain or fragment): in experiment [1], the Kd is 294 nM; the dissociation rate constant (koff) – broadly, the rate constant with which the complex falls apart – stood at 0.00141 s⁻¹; the on-rate constant (kon) (in general, a measure of how fast the partners come together) is 4780 M⁻¹ s⁻¹. Moreover, in experiment [2], the Kd came to 94.6 nM, the koff is 0.00383 s⁻¹ and the on-rate (kon) turned out to be 40500 M⁻¹ s⁻¹. Further, in experiment [3], the Kd is 68.5 nM, the koff came out at 0.0012 s⁻¹ and the on-rate (kon) came to 17600 M⁻¹ s⁻¹.
As to “gp350-ECD123-Fc_(mIgG2a) (from UniProt P03200-1 1-425) (Fc fusion)”, the stoichiometry N in experiment [4] and in experiment [5] was 2 in each case.
In the case of “gp350-ECDFL-Fc_(mIgG2a) (from UniProt P03200-1 1-803) (Fc fusion)”, the stoichiometry N in experiment [6] and in experiment [7] was 2 in each case.

The record behind these values is paper PMC5938345.
